Reference: patent US20250154281A1 (Amgen, published 2025)
Numbering of substitutions follows the chain as printed. Names and notes keep the numbering of the source. Blank lines part the entries; values can stand above or below the binder they belong to.

Legend:
[1] = biological target: T1, human STEAP1 (Six Trans-membrane Epithelial Antigen of the Prostate 1) (human, UniProt Q9UHE8 1-339); test: cell-based or functional assay
[2] = biological target: T1, human STEAP1 (Six Trans-membrane …); test: cell-based or functional assay; remark: listed apart in the source
[3] = biological target: T1, human STEAP1 (Six Trans-membrane …); test: flow cytometry on C4-2B-Luc cells
Description: (§1) C4-2B-Luc cells were incubated with increasing concentrations of Ab-A1 XmAb²⁺¹, Ab-A1 Xmab, Ab-B1 Xmab, Ab-Mx1, Ab-Mx2 and Ab-Mx3 up to […], for 1 hour at 4° C. Cell-bound antibodies were detected by flow cytometry after incubation with an APC-conjugated anti-human IgG secondary antibody and mean fluorescence intensity (MFI) of the APC channel at increasing concentrations of respective antibodies tested.

[4] = biological target: T1, human STEAP1 (Six Trans-membrane …); test: flow cytometry on C4-2B-Luc cells, APC anti-human IgG, MFI
Description: as §1

[5] = biological target: T1, human STEAP1 (Six Trans-membrane …); test: flow cytometry on C4-2B luc cells, MFI (repeat experiment)
Description: The experiment was repeated with Ab-A in various formats (Ab-A (traditional, monospecific antibody, not humanized), Ab-A1 XmAb format, Ab-A1 Xmab²⁺¹ format, and Ab-A2(N67Q) Xmab²⁺¹ format (with N67Q modification)) and Ab-B XmAb format. C4-2B-Luc cells were incubated with increasing concentrations of anti-STEAP1 XmAb or XmAb²⁺¹ molecules up to […], for one hour at 4° C. […] Results are shown in FIGS. 12A-12C and FIG. 13 and Table 4 below.

[6] = biological target: T1, human STEAP1 (Six Trans-membrane …); test: cell-based or functional assay; remark: listed apart in the source
[7] = biological target: T1, human STEAP1 (Six Trans-membrane …); test: cell-based or functional assay; remark: listed apart in the source
[8] = biological target: T1, human STEAP1 (Six Trans-membrane …); test: cell-based or functional assay; remark: listed apart in the source
[9] = biological target: T2, recombinant human CD3ε-Fc (human, UniProt P07766 23-126); test: ^b data generated using Octet
T2 construct: also called human CD3E-Fc; not shown: Fc part
T2 sequence (P07766 23-126 limits assumed): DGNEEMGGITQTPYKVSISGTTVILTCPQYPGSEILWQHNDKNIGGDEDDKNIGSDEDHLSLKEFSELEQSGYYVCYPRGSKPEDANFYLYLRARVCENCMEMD

[10] = biological target: T3, recombinant cynomolgus CD3ε-Fc (cynomolgus, UniProt Q95LI5 22-117, limits assumed); test: ^b data generated using Octet
T3 construct: not shown: Fc part
T3 sequence (looked up): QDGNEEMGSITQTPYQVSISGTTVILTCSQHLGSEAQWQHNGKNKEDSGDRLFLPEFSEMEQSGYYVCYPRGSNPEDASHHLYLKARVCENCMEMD

[11] = biological target: T2, recombinant human CD3ε-Fc; test: SPR, CD3ε-Fc immobilized on CM5 chip; ^a data generated using BIAcore
Description: (§2) Recombinant human CD3E-Fc and cynomolgus CD3ε-Fc were immobilized on a CM5 chip surface using standard amine coupling procedure at ˜60 RU. Ab-A2(N67Q) XmAb²⁺¹ was injected concentrations of 100, 33.3, 11.1 and 3.7 nM. The association and dissociation rates of Ab-A2(N67Q) XmAb²⁺¹ interaction to the ligands were recorded for 120 sec and 300 sec, respectively, as set forth below in Table 8. The equilibrium dissociation constant (KD) values were derived as a ratio of the dissociation rate constant and the association rate constant (koff/kₒₙ).

[12] = biological target: T3, recombinant cynomolgus CD3ε-Fc; test: as above
Description: as §2

T1 sequence (Q9UHE8 whole entry): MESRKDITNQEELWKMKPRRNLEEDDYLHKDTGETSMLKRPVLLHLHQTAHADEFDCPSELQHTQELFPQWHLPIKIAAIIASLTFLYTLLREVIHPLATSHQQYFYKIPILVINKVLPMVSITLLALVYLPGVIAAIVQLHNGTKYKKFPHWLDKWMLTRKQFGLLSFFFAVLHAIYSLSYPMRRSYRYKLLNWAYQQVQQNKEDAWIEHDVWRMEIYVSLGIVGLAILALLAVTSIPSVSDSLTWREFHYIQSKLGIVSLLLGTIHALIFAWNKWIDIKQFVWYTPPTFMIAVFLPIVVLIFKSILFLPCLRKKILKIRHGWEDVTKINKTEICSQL

TDCC EC50 [1]: 6 pM | TDCC EC50, C4-2B luc cells [2]: 6.3 pM | fold lower binding EC50 than Ab-A1 Xmab [3]: 65 fold | EC50 [4]: 2200 pM | EC50 [5]: 2200 pM
B1: Ab-A1 XmAb^2+1 (humanized anti-STEAP1/anti-CD3 heterodimeric antibody) (bispecific antibody)
heavy 1: QVQLVQSGAEVKKPGASVKVSCKASGYTFSTYWIEWVRQAPGQRLEWMGEILPGSGNTDFNEKFQGRVTFTADTSSDTAYMELSSLRSEDTAVYYCTRWGYYGTRGYFNVWGQGTLVTVSSASTKGPSVFPLAPSSKSTSGGTAALGCLVKDYFPEPVTVSWNSGALTSGVHTFPAVLQSSGLYSLSSVVTVPSSSLGTQTYICNVNHKPSNTKVDKKVEPKSCGGGGSGGGGSEVQLVESGGGLVQPGGSLRLSCAASGFTFSTYAMNWVRQAPGKGLEWVGRIRSKYNNYATYYADSVKGRFTISRDDSKNTLYLQMNSLRAEDTAVYYCVRHGNFGDSYVSWFAYWGQGTLVTVSSGKPGSGKPGSGKPGSGKPGSQAVVTQEPSLTVSPGGTVTLTCGSSTGAVTTSNYANWVQQKPGKSPRGLIGGTNKRAPGVPARFSGSLLGGKAALTISGAQPEDEADYYCALWYSNHWVFGGGTKLTVLGGGGSGGGGSKTHTCPPCPAPPVAGPSVFLFPPKPKDTLMISRTPEVTCVVVDVKHEDPEVKFNWYVDGVEVHNAKTKPREEQYNSTYRVVSVLTVLHQDWLNGKEYKCKVSNKALPAPIEKTISKAKGQPREPQVYTLPPSREQMTKNQVKLTCLVKGFYPSDIAVEWESNGQPENNYKTTPPVLDSDGSFFLYSKLTVDKSRWQQGNVFSCSVMHEALHNHYTQKSLSLSPGK
heavy 2: QVQLVQSGAEVKKPGASVKVSCKASGYTFSTYWIEWVRQAPGQRLEWMGEILPGSGNTDFNEKFQGRVTFTADTSSDTAYMELSSLRSEDTAVYYCTRWGYYGTRGYFNVWGQGTLVTVSSASTKGPSVFPLAPSSKSTSGGTAALGCLVKDYFPEPVTVSWNSGALTSGVHTFPAVLQSSGLYSLSSVVTVPSSSLGTQTYICNVNHKPSDTKVDKKVEPKSCDKTHTCPPCPAPPVAGPSVFLFPPKPKDTLMISRTPEVTCVVVDVKHEDPEVKFNWYVDGVEVHNAKTKPREEEYNSTYRVVSVLTVLHQDWLNGKEYKCKVSNKALPAPIEKTISKAKGQPREPQVYTLPPSREEMTKNQVSLTCDVSGFYPSDIAVEWESDGQPENNYKTTPPVLDSDGSFFLYSKLTVDKSRWEQGDVFSCSVMHEALHNHYTQKSLSLSPGK
light: EIVLTQSPATLSLSPGERATLSCRASSSVSYMHWFQQKPGQAPRLLIYSTSNLASGIPARFSGSGSGTDYTLTISSLEPEDFAVYYCQQRRSFPYTFGQGTKLEIKRTVAAPSVFIFPPSDEQLKSGTASVVCLLNNFYPREAKVQWKVDNALQSGNSQESVTEQDSKDSTYSLSSTLTLSKADYEKHKVYACEVTHQGLSSPVTKSFNRGEC
notes: XmAb^2+1 format: first monomer VH-CH1-(anti-CD3 scFv)-Fc, second monomer VH-CH1-Fc, common light chain; two STEAP1 Fabs and one CD3 scFv; monomers 19 or 20 / 18 or 199 / light 17; scFv 44; also called XmAb^2+1 Ab-A1; copies: 1 + 1 + 2

TDCC EC50, C4-2B luc cells [2]: 5.4 pM | TDCC EC50, 293T cells stably transfected with human STEAP1 [6]: 0.1 pM | TDCC EC50, 22RV-1 cells [7]: 257 pM | TDCC EC50, C4-2B cells [7]: 6.8 pM | TDCC EC50, HBSMC cells [7]: 1520 pM | TDCC EC50, HCT116 cells [7]: 336 pM | TDCC EC50, HUCCT1 cells [7]: > 10000 pM | TDCC EC50, IM-95 cells [7]: 345 pM | TDCC EC50, LOX-IMVI cells [7]: 36.6 pM | TDCC EC50, NCIH1869 cells [7]: > 10000 pM | TDCC EC50, PC3 cells [7]: > 10000 pM | TDCC EC50, SK-N-MC cells [7]: 10.4 pM | TDCC EC50, SNU5 cells [7]: 6.2 pM | TDCC EC50, TYKNU cells [7]: 1720 pM | TDCC EC50, VCaP cells [7]: 722 pM | TDCC EC50, A673 cells [8]: 122 pM | TDCC EC50, EBC1 cells [8]: 162 pM | TDCC EC50, OE33 cells [8]: 145 pM | Kd [9]: 27600 pM | Kd [10]: 25800 pM | EC50 [5]: 1200 pM | Kd [11]: 16300 pM | Kd [12]: 15100 pM
B2: Ab-A2(N67Q) XmAb^2+1 (variant of Ab-A1 XmAb^2+1 having a N67Q modification) (bispecific antibody)
heavy 1: B1 heavy 1 with N57Q, R568C, N573G, V578C
heavy 2: B1 heavy 2 with N57Q, R295C, N300G, V305C
light: B1 light
notes: XmAb^2+1 format (two STEAP1 Fabs, one anti-CD3 scFv); monomers 19 or 20 / 18 or 199 / light 17; scFv 44; also called Ab-A2 XmAb^2+1; copies: 1 + 1 + 2
